Laboratory results published in patent publication CN106117361A.

Molecular target: CD3 on Jurkat cells (Jurkat靶标细胞) (UniProt P07766)
Experiment: flow cytometry, culture supernatant on Jurkat cells

Chain of UniProt P07766 (P07766 23-207): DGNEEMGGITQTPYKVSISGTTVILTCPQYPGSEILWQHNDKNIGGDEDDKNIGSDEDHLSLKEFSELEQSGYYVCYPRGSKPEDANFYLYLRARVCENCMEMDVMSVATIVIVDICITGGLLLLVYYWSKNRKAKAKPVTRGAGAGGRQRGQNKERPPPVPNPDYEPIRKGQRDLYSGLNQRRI

B1: A30322 抗CD3单域抗体 (sdAb) (VHH, not shown: large carriers)
VHH: EVQLVECGGGLVQAGGSLRLSCAASGRTFDTMGWFRQAPGKEREFVAAVRWSSGNTYYGNTVKGRFTISRDTATNTVYLEMNSLKHEDTAVYYCAARLAGRGAADHWGQGTQVTVSS
  结合MFI: 521 MFI
